Assay: soluble on expression in E. coli; label from the status in PepcDB or PDB records
In the case of “MGSDKIHHHHHHVDGSTMIARNDDTFLPLTPQRFYVHPAEKNQPKRTWVSNQNGFTAPIPSDGYRYLATPNVEVDKEGVYAESGFNEKNVAMSATESVYGNPAALAIDPLVQNGLAEDSLQTMVLPYINSARDGVRYLGQLIKQYGSPEGNGVLFSDHDEVWYMEIVTGHHWVAQRIPDDAYAITANQVAIQQVSFDDPDNFMFSDGIQDFVTENHLNPDQAGWNFRHIFGTDTEKDRHYNTPRVWFGQRYLNPEIEQDPQSSDLPFICRTSHKISVEDVEYILSSHYNETKYDPFGQGAEADRLKFRPISMNRTQNSHVLQLRNDVPADRSAIFWLCFGVPAFSPYVPFFANVTDTDPTYSDTPVRLDDQSAYWMYRKLSMIVESHYSHFIEQDTDYLTATKQQLRTHVAKTLADAAALTGDELTAYLTAQNHQIVAAMRQSTTQFTNELIEKGLTLSKLTFNMDKNL”, the “soluble on expression in E. coli” value is reported as “not soluble”. For “PKHGKRYRALLEKVDPNKIYTIDEAAHLVKELATAKFDETVEVHAKLGIDPRRSDQNVRGTVSLPHGLGKQVRVLAIAKGEKIKEAEEAGADYVGGEEIIQKILDGWMDFDAVVATPDVMGAVGSKLGRILGPRGLLPNPKAGTVGFNIGEIIREIKAGRIEFRNDKTGAIHAPVGKASFPPEKLADNIRAFIRALEAHKPEGAKGTFLRSVYVTTTMGPSVRINPHS”, the “soluble on expression in E. coli” value was “soluble”. In the case of “MKKDIFYCEQWSYGYKKLHKPFSEKQAEEKHLKGELYTAVIGSATQPEYVITLREEVGFFSVHFFDKFGRDYLTHQFQKYSNSNYYFLSMAVWRDYITLESHDLAEGYTYFFNENTDDCYVLKEDFINNERYEKTELYSQKDKVILFPKFGEYDLVLNPDII”, the “soluble on expression in E. coli” value is reported as “not soluble”. For “MGSDKIHHHHHHMSGPQKANDLLGQIPKTKGLPPVHLWNPDFCGDIDMRIARDGTWYYLGTPIGRKPMVKLFSTIIRRDGDDYFLITPVEKVGIKVDDAPFVAIAVEMEGEGEAQVLRFTTNVDETTEAGAEHLIRVEIDPVTQEPAPYVHVRTNLEALIHRNVFYQLVELAVSREIDGQRWLGVWSGGEFFRIGLEP”, the “soluble on expression in E. coli” value was “not soluble”. For “MSLNAEIGIDSITLSIARVTPSTHWTFVEIVDEENRIGLGEATLTGRDSELLRAASDMFPAIVDMRVDDAASWLDTLELGTIARAAVASALSHAVTDLRARIRNRSIAELLGHPVRAFIPMYANINRRTHTRSPDSFAHSARSAVAAGFSAVKIAPFDGVTLYGSDAHAQPSLIDAALERIAAVRDAVGPAVDVMVDCHWRLNAHVARQVLASDVCDGLHWLECPLPETPDRLHELRALRSLANDRGIRLAGCEEAIRAEGFMPFVEAGAYDVMMPDVKYVGSVDEMLHVAQLLGRHDVEFSPHNPSGPVAHAVSMQICSLVPNFRRMEMQFDETPYFHTLTGATVPVPDNGGAQIARTSGIGMRLDRDALDPLTIRRLQFHRACRAGELVVTEGHHHHHH”, the “soluble on expression in E. coli” value was “soluble”. In the case of “MVLPALPAPPVCDSQNECVGWLGVAYSAVVDVIRAAAHEGVYIEPEARGRLDALREWIYYNYYTERAKRRDRRRRSVCHARTWFCFRKYDYVRRSIWHDTTTNTISVVSAHSVQ”, the “soluble on expression in E. coli” value is reported as “soluble”. In the case of “MAESVFAERIVQNLLDTDFYKLTMMQAVLHNYPNAEVEWEFRCRNAEDLRPYLAEIRYQIERLAEVEVTADQLAFLERIPFMKPDFIRFLSLFRFNLRYVHTGIEDGQLAIRLRGPWLHVILFEVPLLAIVSEVRNRYRYREVVLEQVGEQLYRKLDWLSAQASSEELAEFQVADFGTRRRFSYRTQEEVVHILKRDFPGRFVGTSNVHLAREYDLKPIGTMAHEWLMAHQQLGPRLVDSQQAALDCWVREYRGQLGIALTDCITMDAFLDDFDLYFAKLFDGLRHDSGDPLAWAEKAIAHYRRLGIDPLSKTLVFSDGLDMPKALQLFRALRGKINVSFGIGTNLTCDIPGVEPMNIVLKMTACNGHPVAKISDAPGKTQCRDENFVAYLRHVFNVPA”, the “soluble on expression in E. coli” value is reported as “not soluble”. In the case of “MPDLTKARCPCRGCNKVANNAEEVEELFGLRNMGDGTIRVQSYCRECRGLHCEASNPKCNHHA”, the “soluble on expression in E. coli” value is reported as “not soluble”. In the case of “MKYQLRAIDNQLDEMLQFSGAIAVEGVKGVGKTESAIRRSEHLLQLDRAGDRQLLEADPEFSSFSTGTILIDEWQRMPECWDFVRRGVDAQRTPGRFLLTGSATPQAGIDTHSGAGRILSIRMRPMALFERREHSATVSLADLFLGNAPISGTTDLTLNDYVSEIARSGFPGFNEQPQRAINVELDSYIERIVDRDLPEQGYNVRNRAGLLGWMRAYAAASSTTMSYSEILNAATPGESDKPARKTAALYRSKLTEIWMLDEVPAWDFVRSPLAGLAQAPKHQLADPAFVLRLLGVPANRLVTERYRHFLGPLFESLATLSVRVAAESQFGSVRHLRTRRGDHEVDLIASNQDGDLVAIEVKLTADVKNDDVAHLHWLKEQLPDDVVDMVVLTTGNRAYRRSDGVAVVPLALFGA”, the “soluble on expression in E. coli” value is reported as “not soluble”. In the case of “MGSDKIHHHHHHMAAKGKKKNFVLDTNVMLHDYECIEKFEENDIYIPIVSLEELDKFKKGSEQINFNARAFVRRLDEISDQDLFAKGASLGEGLGRIFVKINGQYHTKVKEAFGENKADHRILSIAMTLADEQPNIKTILVTKDVNLRMKARSLGMLVEDYINDKVTRVDLFENAEPEYEGVDGDLIDRIYASKDGIDIDEWELGSKIDPNDCFVMKSERNSVLARYNPFTGKIVRVEKGHYFGIQPRNAEQTFAMHILTDPNVKLIGLTGKAGTGKTLLALAAALSQEQSYKQILLARPIVSLANKDLGFLPGDEKAKVAPYMQPLFDNLNVIKGQLAQNSSELRRLDEMQKTEKLVIEALAYIRGRSVSETIFIVDEAQNLTPHEIKTIITRAGEGSKLIFTGDIEQIDSPYLDAQSNGLAYMIERMKGQPLFAHVNLIKGERSELSELASDLL”, the “soluble on expression in E. coli” value is reported as “not soluble”. In the case of “MKVAILGASGWIGSHLAAEAKMRGHEVVAVVRDPAKVTLKGVAVQQLDILNPESSLKSVLEGVDAVIASIGGRAAGNHEMVAKTAQRLLNELPQAGVARLLWVGGAGSLEVAPGVKLVTVPGFPEEYKGEALAQGEALEVFRASNSDVNWTFVSPAAEIFPGDKQGQYRVGGDQLLTDSEGNSRISVADYAVALIDELEYAEHPRQRIGVAYLEHHHHHH”, the “soluble on expression in E. coli” value is reported as “not soluble”. With “GGCYERIFAVPQQERTSLRVVTALAHGCDLVITRAGPTPRTYTPLQTQRFRNSLRSDAGCVIMMGDHVVSPAARLASAVVGYHGIGKGTGRIKAVEITVTGIAKGFYRTSRVIVGKHIAPAAEKTTMKVV” the “soluble on expression in E. coli” value was “not soluble”. With “MLIALTGTPGTGKSSVAERLRERGYKVATVVELAEKHGCIIDEEDGEIVIDVESLAARIDFEGIVEGHLSHLLKPDVAIVLRCNPAVLRERLKGRNWSEEKLLENLEAEMLDVILVEALEHASEVYEIDTTEMSLEEVIEAVEAIIRGDREARKRYKPGGIDWLSELEDRIEEFMRKVLEHHHHHH” the “soluble on expression in E. coli” value was “soluble”. In the case of “MPSRYTNILVPVDSSDAAQAAFTEAVNIAQRHQANLTALYVVDDSAYHTPALDPVLSELLDAEAAHAKDAMRQRQQFVATTSAPNLKTEISYGIPKHTIEDYAKQHPEIDLIVLGATGTNSPHRVAVGSTTSYVVDHAPCNVIVIR”, the “soluble on expression in E. coli” value is reported as “not soluble”. With “MKMNLSTPFPLGATLDAEGCNFAIYAPANRDILLALFHADGSYETHQLEHEYAGVKHTHISGIHAGQKYGYLIQLNDELHYISDPYARALEGPLHYAPPFDSHKSFDLPKCVVTDTHFDWQNVAKPRIARDEMVLFETHVKGLTQLNPDVEKALRGKYLGLVSQPMLDFYRQQNINTLQLLPIAACMHEPHLLESGKVNYWGYNPYVFMAPDPRYASKDAVNELKTTIRELHRNGIQVILDVVYNHTAEGGTNGPVFNLKALDPNYYLHHGDHYANYTGCGNTVDLSNQAALNLVMDTLRCWVTEYQIDGFRFDLAATLGRRGDEFSKEAAFFKAVAQDPVLREVKLIAEPWDIGPNGYQVGNFPFGWNETNDKLRDITRSFWRGDLGFLKEFATRLMGSRDLYSAANWPYKLTVNYITYHDGFTLQDLVSYKHKHNEANGEQNRDGHGDNRSDNYGFEGDTDSIVIRATRERQKRNFMASLLFAFGIPHILTADVLSHTQKGNNNAYCQDNDISWLNWENNETKQDFREWLAGMVAARQTYMVPFIRAFSGENRNNNRIAWRRVDGKPMEMDDWNRLSSVALHIGIGSDGPEMLYLINQTNAPARFVLPKDRQQDWRLICDTNMRHAQHGHAEGEVLQLPVSMSILHYQPKKKSA” the “soluble on expression in E. coli” value was “soluble”. In the case of “MTIYDINFAELYQQHLIACNHYNLPPIKWDKKAVKMAENLVGKPSAYNQQLLQAMNVQTDEAVLDIGCGPGTFAVPLAQQGSTVYALDYSNGMLDCLAQFKQKFGLHHLTTFHKSWADNWDDVPQADVVLASRSTLVDDLDDMIEKLCAKAKKRVFLTSVTQRHFLDEGVFEAIGREDIGFPTYIYLLNRLYQKGIQANLNFIETESGCFQGESYEDLLASVEFSLGELSEKEKQGLKAFYDRKQANNEPISHGQKKWALIWWNVDRILEHHHHHH”, the “soluble on expression in E. coli” value is reported as “soluble”. With “MWEYLIHGEPTPRLKPFLEGVGKALEAQGFRHNPESEAPNLVLNAITPENPRPYRRRAQATFVASVLELPEFPQDPLRELYPYLVRALSNVLLAYVPGQGVKFLTLELGHYGEPEGKGFYERVAARLRPIACSRLVINNIFEPDLEPELWQGDELTESMYRAGKKLKEWDLLPAPFPIEEILPPEDLRHVKRLYGIGGLSYGNLSVRKDEKRFWMSASGVDKANLREIGRDILMVKDYDPERNAILLSVPPHVEPRRVSVDAIEHWMIYREHPEVGAILHVHAWMEGVPATAFNYPCGTYELAQAVADKVREAPDPARAVVGLKNHGLTITGRSLDEILERIEGKLIRTVPMA” the “soluble on expression in E. coli” value was “soluble”. With “MNSTHHYEQLIEIFNSCFADDFNTRLIKGDDEPIYLPADAEVPYNRIVFAHGFYASAIHEISHWCIAGKARRELVDFGYWYCPDGRDAQTQSQFEDVEVKPQALDWLFCVAAGYPFNVSCDNLEGDFEPDRVVFQRRVHAQVMDYLTNGIPERPARFIKALQNYYHTPELTAEQFPWPEALN” the “soluble on expression in E. coli” value was “not soluble”. With “MSLEHFFTGTVDRIIFENAANFFKILLLAIEDTDSDIDDFEIIITGTMADIIEGDDYTFWGELTQHPKYGQQLKLSRYQKIKPSSSGLVNYFSSDHFKGIGKKTAEKIIALYGHNTIDHILEDPSKLETISGLSKANRQAFVAKLKLNYGTEQLIAGLVELGLSNRFALQAFEKYKEEALDLVKENPYQLVEDLQGFGFKMADALAENLGIESDSPKRFRAALLHCLLEESINRGDTYVQARQLLDFAITLLEDARQVECDPAAVAEQLSELIIEGKIKNSDTKLFDASLYFAEEGIANNISRLLDTPLSQSFSHDTIQTTIQAVQKDFAITYDQVQQEAITKALTSKVFLLTGGPGTGKTTVIRGILQAYANLHQIDLDKKDLPILLAAPTGRAARRMNELTGLPSATIHRHLGLNGDNDYQAMEDYLDCDLLIVDEFSMVDTWLANQLLGAINSTTQVIIVGDSDQLPSVGPGQVLSDLLKVNSLPQIALQKIFRQSQESTIVNLADQMRRGILAADFRDKKADRSYFEAQAAFIPDMIQKIVLSAIKSGIPAEEIQILAPMYKGQAGINHLNQLMQELLNPLQGQTEFLFNDTHFRKGDKVLHLVNDAQLNVFNGDIGYITDLIPAKYTESKQDELILDFDGSEVTYPRNEWLKLTLAYAMSIHKSQGSEFQVVILPITRQSGRLLQRNVIYTAITRSKSKLILLGEYTAFEYAIKHEGDKRQTYLIERFQEQSDLASSEGHHHHHH” the “soluble on expression in E. coli” value was “soluble”. For “MSLDLISFSVPGNLLLMGEYTILEEKGLGLAIAINKRAFFSFKKSDSWRFFSKKKKIDDFSLIENRSDFVFKMFAYLSQNCFFNLENFAYDVYIDTSNFFFNDGTKKGFGSSAVVAIGIVCGLFLIHNATNVVEKGEIFKYCLEAYRYSQGGIGSGYDIATSIFGGVIEFEGGFNPKCRQLGAVEFNDFYLMQGLQAIKTTTSICEYNKHRNSILDFILKCNLEMKKLVLNASNSKSALISSLRRAKELGLAIGEAIGVSAALPSSFDHLLGQCDLIKALGAGNETFLVYRPNIEAFNLSKIISIVLENEGIKFESDKEGHHHHHH”, the “soluble on expression in E. coli” value was “not soluble”.
